The target of assay [1] is associated or linker proteins (plasma proteins of the approximately 320 kDa complex). In words: SEC.
The target of assay [2] is Complement C3 (purified, native) (UniProt P01024). In words: pull-down.
For assay [3] the target is unchanged. In words: flow cytometry on coated beads.

In article PMC7231451 one finds percent of AAT in the complex, Western blot densitometry of bound AAT (C3-coated beads vs control beads) and fluorescence intensity of binding (h-AAT vs r-AAT) data, which are given here for two substances.

Regarding “Alpha-1 antitrypsin (from UniProt P01009 25-418) (natural protein)”, the percent of AAT in the complex in assay [1] was found to be 13%.

Regarding “plasma purified human AAT (natural protein)”, the Western blot densitometry of bound AAT (C3-coated beads vs control beads) in assay [2] was 2.7 AU. The fluorescence intensity of binding (h-AAT vs r-AAT) in assay [3] turned out to be 1.5 AU.
